Laboratory results reported in patent US20240190918A1, “FIBRIL PEPTIDES” (Universität Ulm, priority 2021, published 2024).
Entries after “also recorded” stand apart in the source; their conditions may differ. Peptide text beside a SMILES is read from it.

Assays:
[1] = tested on: R5-tropic HIV-1; assay: HIV-1 infection of TZM-bl cells, Tat-inducible β-galactosidase activity; conditions: 3 days; for n-fold enhancement of HIV-1 infection: virus treated with 150 μg/ml peptide
Method: HIV-1 was produced from pBRNL4.39-92TH14, a plasmid containing a CCR5 tropic molecular HIV-1 clone (Papkalla et al., 2002). Infectious HIV-1 stocks were prepared by transfection of 293T cells by calcium phosphate transfection and HIV-1 infection of TZM-bl cells was determined by detecting cellular β-galactosidase activity.
To determine the effect on HIV-1 infection, stocks of the CCR5 tropic HIV-1 were generated by transient transduction of 293T cells with proviral DNA and harvested 2 days later. The HIV-1 stock was titrated and a dilution factor of 125 was chosen for infection of TZM-bl cells to reach a maximal infection enhancement. HIV-1 virus was added to serially diluted IL-18 peptides and mixtures were used to infect TZM-bl cells which contain the reporter gene β-galacosidase under the control of the HIV-1-LTR promoter (Wei et al., 2002).

[2] = Thioflavin T (ThT) fluorescence, fibril formation; type: physicochemical; conditions: peptide 2 mg/ml in PBS, RT 10 min; 'except for' = no ThT signal detected
Description: The fibril peptide has the activity of forming fibrils in an aqueous solution, the term “fibril” relating to any threadlike structure or filament comprising, preferably consisting of, a multitude of fibril peptides; preferably, the fibrils are nanofibrils, i.e. have a diameter of from 2 to 20 nm, and/or a length of from 100 nm to 10 μm, preferably of from 100 nm to 5 μm. Preferably, aggregation of fibril peptides occurs spontaneously in aqueous solution, wherein an aqueous solution is a solution comprising at most 28% (v/v), preferably at most 15% (v/v), more preferably at most 10% (v/v), still more preferably at most 5% (v/v), most preferably at most 2% (v/v), organic solvents. Methods for determining the activity of forming fibrils are known to the skilled person and are shown herein in the Examples. Preferably, the activity of forming fibrils is determined by a Thioflavin T binding assay as specified herein in the Examples. The activity of forming fibrils may, however, also be determined by Transmission electron microscopy (TEM), Congo Red staining, measurement of conversion rate, and/or Fourier transform infrared (FTIR) spectroscopy; the aforesaid methods are known in the art.
The peptides were solved in HFIP (1,1,1,3,3,3-Hexafluoro-2-propanol) and were sonicated using an Ultrasonic cleaner. The peptides were stored at −20° C. and for each experiment they were freshly dissolved in DMSO to 10 mg/ml; to generate fibrils, the peptides were diluted in PBS to get 2 mg/ml or 1 mg/ml and incubated for 10 min at room temperature (RT).
The lyophilized RM-8 and its derivatives (Peptides 1-42) were solved in DMSO to 10 mg/ml and stored at 4° C. For each experiment they were freshly solved in PBS to 2 mg/ml and incubated for 10 min at RT.
(§1) Peptides derived from human interleukin-18 were identified by an in silico-screening approach where the human protein interleukin-18 (Q14116) was analyzed by the amyloid prediction tools ZipperDB, TANGO 2.0 and PASTA (FIG. 1A). To examine if these endogenous peptides form nanofibrils, the freshly prepared peptides were incubated with the amyloid specific dye Thioflavin T (ThT), which fluorescence increases upon binding to amyloid fibrils. […] To determine if the IL-18 peptides have the ability to form positively charged fibrils the zeta potential was measured.

[3] = Zeta potential of peptide nanofibrils; type: physicochemical; conditions: peptides incubated at RT for 10 min
Method: FIG. 1: Human interleukin-18 (IL-18) derived peptides form nanofibrils. (A) Table displaying sequences, physical and chemical parameters of peptides derived from IL-18. The positively charged amino acids are written in italics. (B) ThT fluorescence of the tested peptides and EF-C (Protransduzin®-A) which were incubated at RT for 10 min. (C) Zeta potential of peptides which were incubated at RT for 10 min. Shown are average values (±SD) of duplicates from two independent experiments. (D-J) Transmission electron microscopy images of EF-C (D), RK-10 (E-F), RM-8 (G-H), RS-7 (I), and FK-7 (J). […]
FIG. 5: RM-8 analogs from alanine scanning form positively charged nanofibrils. […] (B) ThT fluorescence of alanine scanning derived peptides, RM-8, QH-9 and EF-C. […]
as §1

[4] = tested on: Human CD4+ and CD8+ T cells; assay: Viability of transduced human T cells, trypan blue staining; type: cell-based; conditions: 7 days
Method: FIG. 10: RM-8 nanofibrils enhance GALV-γ-RV transduction of T cells. […] GFP expression of CD3+ cells was analyzed by flow cytometry. Viability was determined by trypan blue staining. Human CD4+ and CD8+ T cells were isolated from Buffy coats of two donors. Indicated transduction enhancers were incubated with GAL V-γ-RV and then the mix was used to transduce T cells. Shown are average values (±SD). SD, standard deviation.
For the CAR T cell like process human CD4+ and CD8+ T cells were isolated from Buffy coats of two donors using RosetteSep™ Human CD4+ and CD8+ T Cell Enrichment Cocktail (STEMCELL Technologies) according to manufacturer's protocol. Isolated T cells were activated using Dynabeads™ Human T-Activator CD3/CD28 (Gibco™) according to manufacturer's protocol for three days in presence of 10 ng/ml interleukin-2 (IL-2). After 3 days the magnetic Dynabeads were removed using a magnet and T cells were cultured in presence of 9 ng/ml interleukin-7 (IL-7) and 10 ng/ml interleukin-15 (IL-15). After 1 day T cells were transduced with GALV-γ-RV using the transduction enhancers RM-8 (50 μg/ml), Vectofusin®-1 (10 μg/ml), or RetroNectin (20 μg/ml). […] After 7 days the transduced T cells were analyzed by flow cytometry.

[5] = Fibril stability by UPLC; type: physicochemical; conditions: 2 mg/ml; 10 min, 1 h, 24 h, 10 d at RT or 37° C.
Method: Fibrils were generated by dissolving lyophilized peptides in DMSO to 10 mg/ml followed by adding PBS to receive a final concentration of 2 mg/ml. Fibril stocks were incubated at room temperature (RT) and 37° C. and after 10 min, 1 h, 24 h and 10 days stability assays using ultra performance liquid chromatography (UPLC) with a reverse phase column was performed in collaboration with the Core Facility Functional Peptidomics (Ulm University). Shown is one individual experiment.
Since the stability of pharmaceutical products must be ensured during application (Grassi et al., 2019), we analyzed the stability of RM-8, which contains a C-terminal methionine, an amino acid sensitive to oxidation, by ultra performance liquid chromatography (UPLC). To that end, RM-8 nanofibrils were incubated for 10 min, 1 h, 24 h or 10 d at room temperature (RT) of 37° C. followed by UPLC analysis.

Molecule: RS-12: peptide derived from human interleukin-18; sequence only in FIG. 1A (RDNAPRTIFIIS; Peptide RS-12)
- n-fold enhancement of HIV-1 infection [1]: weak or no effects

Molecule: RTIPIISM (Peptide 17)
- ThT signal (fibril formation) [2]: except for

Molecule: FK-7: peptide derived from human interleukin-18; sequence only in FIG. 1A (FIISMYK; Peptide FK-7)
- n-fold enhancement of HIV-1 infection [1]: weak or no effects

Molecule: RTIAIISM (fibril peptide 20) [Peptide A4, RM-8 analog from alanine scanning]
- ThT signal (fibril formation) [2]: except for

Molecule: RTIFIRSM (Peptide 25)
- ThT signal (fibril formation) [2]: except for

Molecule: RTIFGISM (Peptide 18)
- ThT signal (fibril formation) [2]: except for

Molecule: RS-7: peptide derived from human interleukin-18; sequence only in FIG. 1A (RTIFIIS; Peptide RS-7)
- n-fold enhancement of HIV-1 infection [1]: weak or no effects

Molecule: RTIFIKSM (Peptide 26)
- ThT signal (fibril formation) [2]: except for

Molecule: RTIFIISA (fibril peptide 24) [Peptide A8, RM-8 analog from alanine scanning]
- ThT signal (fibril formation) [2]: except for

Molecule: RTIFIISMYK (fibril peptide 34) [RK-10, peptide derived from human interleukin-18]
- enhancement of HIV-1 infection (in words) ([1]; serially diluted peptides): dose-dependably enhancement
- zeta potential (sign) [3]: positive zeta potential

Molecule: CC[C@H](C)[C@H](NC(=O)[C@H](Cc1ccccc1)NC(=O)[C@@H](NC(=O)[C@@H](NC(=O)[C@@H](N)CCCNC(=N)N)[C@@H](C)O)[C@@H](C)CC)C(=O)N[C@H](C(=O)N[C@@H](CO)C(=O)N[C@@H](CCSC)C(=O)O)[C@@H](C)CC [RM-8, RTIFIISM] (H-RTIFIISM-OH)
- cytotoxicity on T cells [4]: without showing cytotoxicity; also recorded: not showing cytotoxicity
- stability of nanofibrils (UPLC) [5]: stable for 10 days; also recorded: stable over time
